Assay results taken from the Human Domainome abundance scans (Beltran et al. 2025).
± gives the uncertainty stated by the source.

B1: Double-stranded RNA-binding protein Staufen homolog 1, residues 183 to 249; numbered along this chain, O95793 (parent)
chain: KSEISQVFEIALKRNLPVNFEVARESGPPHMKNFVTKVSVGEFVGEGEGKSKKISKKNAAIAVLEEL

Variants of: B1
Test: abundance fitness (aPCA) (normalised: wild type 0, dead -1); higher = more abundant; growth selection in yeast, the domain comes from the species named
Conditions: Homo sapiens

Row | Variant | abundance fitness
1 | KSEISQVFEIALKWNLPVNFEVARESGPPHMKNFVTKVSVGEFVGEGEGKSKKISKKNAAIAVLEEL [R14W] | -0.25 ± 0.07
2 | KSEISQVFEIALKYNLPVNFEVARESGPPHMKNFVTKVSVGEFVGEGEGKSKKISKKNAAIAVLEEL [R14Y] | -0.048 ± 0.15
3 | KSEISQVFEIALKRNLPVNFEVARESGPPHMKNFVTKVSVGEFMGEGEGKSKKISKKNAAIAVLEEL [V44M] | -0.045 ± 0.068
4 | KSEISQVFEIALKRNLPVNDEVARESGPPHMKNFVTKVSVGEFVGEGEGKSKKISKKNAAIAVLEEL [F20D] | -0.613 ± 0.11
5 | KSEISQVFEIALKRNWPVNFEVARESGPPHMKNFVTKVSVGEFVGEGEGKSKKISKKNAAIAVLEEL [L16W] | -0.063 ± 0.051
6 | KSEISQVFEIALKRNYPVNFEVARESGPPHMKNFVTKVSVGEFVGEGEGKSKKISKKNAAIAVLEEL [L16Y] | -0.454 ± 0.088
7 | KSEISQVFEIALKRNEPVNFEVARESGPPHMKNFVTKVSVGEFVGEGEGKSKKISKKNAAIAVLEEL [L16E] | -0.472 ± 0.087
8 | KSEISQVFEIALKRNVPVNFEVARESGPPHMKNFVTKVSVGEFVGEGEGKSKKISKKNAAIAVLEEL [L16V] | -0.176 ± 0.066
9 | KSEISQVFEIALKRNLPRNFEVARESGPPHMKNFVTKVSVGEFVGEGEGKSKKISKKNAAIAVLEEL [V18R] | -0.657 ± 0.058
10 | KSEISQVFEIALKRNLPQNFEVARESGPPHMKNFVTKVSVGEFVGEGEGKSKKISKKNAAIAVLEEL [V18Q] | -0.647 ± 0.079
11 | KSEISQVFEIALKRNLPPNFEVARESGPPHMKNFVTKVSVGEFVGEGEGKSKKISKKNAAIAVLEEL [V18P] | -0.402 ± 0.084
12 | KSEISQVFEIALKRNLPVNFEAARESGPPHMKNFVTKVSVGEFVGEGEGKSKKISKKNAAIAVLEEL [V22A] | -0.022 ± 0.045
13 | KSEISQVFEIALKRNLPVNFESARESGPPHMKNFVTKVSVGEFVGEGEGKSKKISKKNAAIAVLEEL [V22S] | -0.059 ± 0.048
14 | KSEISQVFEIALKRNLPVNFEPARESGPPHMKNFVTKVSVGEFVGEGEGKSKKISKKNAAIAVLEEL [V22P] | 0.056 ± 0.057
15 | KSEISQVFEIALKRNLPVNFEVARESGPPHMKNFVTKVSVGEFVGEGEGKSKKISKKRAAIAVLEEL [N58R] | -0.105 ± 0.04
16 | KSWISQVFEIALKRNLPVNFEVARESGPPHMKNFVTKVSVGEFVGEGEGKSKKISKKNAAIAVLEEL [E3W] | -0.309 ± 0.082
17 | KSQISQVFEIALKRNLPVNFEVARESGPPHMKNFVTKVSVGEFVGEGEGKSKKISKKNAAIAVLEEL [E3Q] | -0.247 ± 0.062
18 | KSEISQVFLIALKRNLPVNFEVARESGPPHMKNFVTKVSVGEFVGEGEGKSKKISKKNAAIAVLEEL [E9L] | -0.36 ± 0.041
19 | KSEISQVFEIALKRNLPVNFEVARESGPPHHKNFVTKVSVGEFVGEGEGKSKKISKKNAAIAVLEEL [M31H] | 0.079 ± 0.076
20 | KSEISQVFEIALKRNLPVNFEVARESGPPHCKNFVTKVSVGEFVGEGEGKSKKISKKNAAIAVLEEL [M31C] | 0.073 ± 0.047

Row | Variant | abundance fitness
21 | KSEISQVFEIALKRNLPVNFEVARESGPPHIKNFVTKVSVGEFVGEGEGKSKKISKKNAAIAVLEEL [M31I] | -0.12 ± 0.061
22 | KSEISQVFEIALYRNLPVNFEVARESGPPHMKNFVTKVSVGEFVGEGEGKSKKISKKNAAIAVLEEL [K13Y] | -0.323 ± 0.1
23 | KSEISQVFEIALKRNLPVNFEVARESGPPHMKMFVTKVSVGEFVGEGEGKSKKISKKNAAIAVLEEL [N33M] | -0.128 ± 0.061
24 | KSEISQVFEIALKRNLPVNFEVARESGPPHMKFFVTKVSVGEFVGEGEGKSKKISKKNAAIAVLEEL [N33F] | -0.29 ± 0.091
25 | KSEISQVFEIALKRNLPVNFEVARESGPPHMKIFVTKVSVGEFVGEGEGKSKKISKKNAAIAVLEEL [N33I] | -0.117 ± 0.073
26 | KSEISQVFEIALKRNLPVCFEVARESGPPHMKNFVTKVSVGEFVGEGEGKSKKISKKNAAIAVLEEL [N19C] | 0.027 ± 0.11
27 | KSEISQVFEIALKRNLPVNFEVARESGPPHMKNFVTKVSVGEFVGEGEGKSKKISKKNAAIAVLECL [E66C] | -0.037 ± 0.13
28 | KSEISQVFEIALKRNLPVNFEVARESGPPHMKNFSTKVSVGEFVGEGEGKSKKISKKNAAIAVLEEL [V35S] | -0.111 ± 0.042
29 | KSEISQVFEIALKRNLPVNFEVARESGPPHMKNFITKVSVGEFVGEGEGKSKKISKKNAAIAVLEEL [V35I] | 0.046 ± 0.051
30 | KSEISQVFEIALKRFLPVNFEVARESGPPHMKNFVTKVSVGEFVGEGEGKSKKISKKNAAIAVLEEL [N15F] | -0.557 ± 0.12
31 | KSEISQVFEIALKRYLPVNFEVARESGPPHMKNFVTKVSVGEFVGEGEGKSKKISKKNAAIAVLEEL [N15Y] | -0.637 ± 0.1
32 | KSEISQVFEIALKRNLPVNFEVARESGPPHMKNFVTKVSVGEFVTEGEGKSKKISKKNAAIAVLEEL [G45T] | -0.246 ± 0.048
33 | KSEISQVFEIALKRNLPVNFEVARESGPPHMKNFVTKVSVGEFVGEGEEKSKKISKKNAAIAVLEEL [G49E] | -0.74 ± 0.052
34 | KSEISQVFEIARKRNLPVNFEVARESGPPHMKNFVTKVSVGEFVGEGEGKSKKISKKNAAIAVLEEL [L12R] | 0.127 ± 0.06
35 | KSEISQVFEIAFKRNLPVNFEVARESGPPHMKNFVTKVSVGEFVGEGEGKSKKISKKNAAIAVLEEL [L12F] | -0.075 ± 0.13
36 | KSEISQVFEIALKRNLPVNFNVARESGPPHMKNFVTKVSVGEFVGEGEGKSKKISKKNAAIAVLEEL [E21N] | -0.226 ± 0.086
37 | KSEISQVFEIALKRNLPVNFEVARESGPPHMKNFVTKVSVGEFVGEGEGKSKKISNKNAAIAVLEEL [K56N] | -0.405 ± 0.34
38 | KSEISQVFEIALKRNLPVNFEVARESGPPHMKNFVTKVSVGEFVGEGEGKSKKISGKNAAIAVLEEL [K56G] | -0.599 ± 0.056
39 | KSEISQVFEIALKRNLPVNFEVARESGPPHMKNFVTKVSVGEFVGEGEGKSKKISPKNAAIAVLEEL [K56P] | -0.997 ± 0.2
40 | KTEISQVFEIALKRNLPVNFEVARESGPPHMKNFVTKVSVGEFVGEGEGKSKKISKKNAAIAVLEEL [S2T] | -0.235 ± 0.052
